Measurements from the supplement of paper PMC6757056.
± gives the standard deviation of the averaged measurements.

B1: library; a variant is named by its letters at N, in order (parent)
chain: GCUGUCACCGGAAUACCAGCAUCGUCUUGAUGCCCUUGGAAGUCCGGUCUGAUGAGUCCNNNNNGGACGAAACAGC

Columns and labels:
theophylline [1] = variants of: B1; test: FACS-Seq fitted mean relative fluorescence mCherry/BFP without ligand (log10 relative fluorescence); higher = higher reporter protein expression; settings: HEK293T, ligand present: no
Outline: (§1)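 Sorting into 6 bins by mCherry/BFP followed 48 h of incubation with or without ligand. The cells were enriched HEK293T libraries lentivirally bearing an mCherry reporter with the ribozyme switch and an EF1α-BFP marker, and bin genomic DNA was PCR-amplified, barcoded and sequenced on MiSeq. Fluorescence is the fitted normal mean of the bin counts. Means were fitted on log10(mCherry/BFP), scaled to five spiked-in control ribozymes.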

theophylline [2] = variants of: B1; test: normalized RNA/DNA level with ligand (relative to sTRSVctl = 100) (log10 (% of sTRSVctl)); higher = less ribozyme self-cleavage, higher mRNA level; settings: ligand concentration (+) RNA-Seq: 5 mM, HEK293T, reporter: mCherry (pCS4076), ligand present: yes
Outline: (§2)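 For each 6-well well, 4 µg of library plasmid encoding mCherry-linked ribozyme switches, or eGFP-linked ones in some ligand experiments, was transfected into HEK293T. Any ligand was added 1 h before transfection, and RNA was extracted with EDTA 72 h after it, then reverse-transcribed, amplified, barcoded and sequenced. RNA level was obtained by dividing RNA reads by DNA reads, normalizing to a spiked-in non-cleaving sequence or to the top sequences, then scaling and log-transforming. The top set was 25 sequences, scaling was ×100 with log10, and ≥100 DNA reads were required.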

theophylline [3] = variants of: B1; test: normalized RNA/DNA level without ligand (relative to sTRSVctl = 100) (log10 (% of sTRSVctl)); higher = less ribozyme self-cleavage, higher mRNA level; settings: HEK293T, reporter: mCherry (pCS4076), ligand present: no
Outline: as §2

theophylline [4] = variants of: B1; test: FACS-Seq fitted mean relative fluorescence mCherry/BFP with ligand (log10 relative fluorescence); ligand concentration (+) FACS-Seq: 1 mM; higher = higher reporter protein expression; settings: HEK293T, ligand present: yes
Outline: as §1

Variant	FACS-Seq fitted mean (log10) (theophylline [1])	normalized RNA/DNA level with ligand (log10) (theophylline [2])	normalized RNA/DNA level without ligand (log10) (theophylline [3])	FACS-Seq fitted mean (log10) (theophylline [4])
AAUCA	0.1911 ± 0.00077	1.9026 ± 0.0018	1.7 ± 0.029	0.221 ± 0.08
AUACG	0.526 ± 0.063	2.0061 ± 0.0018	1.831 ± 0.0082	0.507 ± 0.02
CUAUA	0.141 ± 0.018	1.972 ± 0.0076	1.61 ± 0.08	0.384 ± 0.024
AGCGC	0.459 ± 0.1	2.058 ± 0.016	1.98 ± 0.047	0.52 ± 0.18
CUGUC	0.555 ± 0.065	2.021 ± 0.014	1.99 ± 0.021	0.5114 ± 0.0041
GACAA	0.619 ± 0.048	1.938 ± 0.019	1.56 ± 0.022	0.731 ± 0.017
UCUUG	0.933 ± 0.1	1.94 ± 0.18	1.94 ± 0.037	1.01 ± 0.025
UAGAU	0.687 ± 0.045	2.02 ± 0.036	1.8244 ± 0.0014	0.828 ± 0.09
ACGAG	0.428 ± 0.049	2.05 ± 0.026	1.85 ± 0.073	0.448 ± 0.017
CAGAU	0.809 ± 0.1	2 ± 0.035	1.6 ± 0.25	1.05 ± 0.037
AUCUC	0.832 ± 0.12	2.03 ± 0.032	1.97 ± 0.013	0.758 ± 0.14
CAUUU	0.805 ± 0.079	2.1059 ± 0.00056	1.74 ± 0.12	0.945 ± 0.13
UGAUG	0.912 ± 0.0092	2.005 ± 0.00081	1.91 ± 0.14	0.848 ± 0.11
ACUCC	0.767 ± 0.21	2 ± 0.068	1.96 ± 0.026	0.658 ± 0.024
ACAUA	0.248 ± 0.061	1.94 ± 0.1	1.72 ± 0.045	0.427 ± 0.032
GAGCC	0.935 ± 0.11	1.953 ± 0.015	1.849 ± 0.013	0.918 ± 0.019
AAGGC	0.518 ± 0.013	1.93 ± 0.046	1.89 ± 0.079	0.476 ± 0.023
CAAAC	0.851 ± 0.024	1.92 ± 0.024	1.82 ± 0.054	0.833 ± 0.033

Variant	FACS-Seq fitted mean (log10) (theophylline [1])	normalized RNA/DNA level with ligand (log10) (theophylline [2])	normalized RNA/DNA level without ligand (log10) (theophylline [3])	FACS-Seq fitted mean (log10) (theophylline [4])
AAAGA	-0.192 ± 0.043	1.92 ± 0.08	1.32 ± 0.06	0.259 ± 0.0043
UAGUC	0.521 ± 0.015	1.925 ± 0.01	1.88 ± 0.067	0.4472 ± 0.0043
AGCGA	0.281 ± 0.033	1.99 ± 0.025	1.68 ± 0.058	0.503 ± 0.017
CGUAA	0.083 ± 0.047	2.04 ± 0.029	1.303 ± 0.0043	0.767 ± 0.036
AAUAA	-0.00162 ± 0.092	1.88 ± 0.051	1.33 ± 0.021	0.509 ± 0.039
ACAGG	0.315 ± 0.055	2 ± 0.057	1.78 ± 0.045	0.357 ± 0.0097
GAAGG	0.991 ± 0.26	1.87 ± 0.011	1.72 ± 0.12	0.957 ± 0.057
CUCCU	0.814 ± 0.015	2.005 ± 0.011	1.88 ± 0.098	0.682 ± 0.033
CGGGC	0.725 ± 0.09	1.94 ± 0.065	2.01 ± 0.0021	0.717 ± 0.016
UCGCU	0.4314 ± 0.00049	2.03 ± 0.11	1.891 ± 0.0058	0.533 ± 0.055
GACCU	1.03 ± 0.1	1.99 ± 0.064	1.95 ± 0.06	1.03 ± 0.15
AUGGA	0.368 ± 0.04	1.94 ± 0.043	1.68 ± 0.16	0.63116 ± 0.00056
CAGUA	0.206 ± 0.0074	1.95 ± 0.15	1.27 ± 0.084	0.675 ± 0.018
CUCCA	1.01 ± 0.29	2.03 ± 0.048	1.87 ± 0.038	0.946 ± 0.15
AGUAG	0.85 ± 0.075	1.97 ± 0.1	1.71 ± 0.034	0.8838 ± 0.0022
UCCAA	0.973 ± 0.14	2.04 ± 0.078	1.84 ± 0.09	0.912 ± 0.053
AGGUC	0.52 ± 0.032	1.95 ± 0.15	1.872 ± 0.016	0.587 ± 0.049
GAAUA	1.08 ± 0.19	1.85 ± 0.068	1.627 ± 0.0033	0.942 ± 0.085
